Positions count from the first letter of the chain named. Numbers in names are those of the source.
B1: CD38-M1-G2D-1 (bispecific antibody, human IgG1, kappa)
chain: QVQLVESGGGVVQPGRSLRLSCAASGFTFSTYAMNWVRQAPGKGLEWVARIRSKYNNYATYYADSVKDRFTISRDDSKNTLYLQMNSLRAEDTAVYYCARHGNFGNSYVSWFAYWGQGTLVTVSSGGGGSGGGGSGGGGSQTVVTQEPSLTVSPGGTVTLTCRSSTGAVTTSNYANWVQQKPGQAPRGLIGGTNKRAPGVPARFSGSLLGGKAALTLSGVQPEDEAEYYCALWYSNLWVFGGGTKVEIKGRGRGSDKTHTCPPCPAPPVAGPSVFLFPPKPKDTLMISRTPEVTCVVVDVSHEAPEVQFNWYVDGVEVHNAKTKPREEQFNSTFRVVSVLTVVHQDWLNGKEYKCKVSNKGLPAPIEKTISKTKGQPREPQVCTLPPSRDELTKNQVSLSCAVKGFYPSDIAVEWESNGQPENNYKTTPPVLDSDGSFFLVSKLTVDKSRWQQGNVFSCSVMHEALHNHYTQKSLSLSPGK
heavy: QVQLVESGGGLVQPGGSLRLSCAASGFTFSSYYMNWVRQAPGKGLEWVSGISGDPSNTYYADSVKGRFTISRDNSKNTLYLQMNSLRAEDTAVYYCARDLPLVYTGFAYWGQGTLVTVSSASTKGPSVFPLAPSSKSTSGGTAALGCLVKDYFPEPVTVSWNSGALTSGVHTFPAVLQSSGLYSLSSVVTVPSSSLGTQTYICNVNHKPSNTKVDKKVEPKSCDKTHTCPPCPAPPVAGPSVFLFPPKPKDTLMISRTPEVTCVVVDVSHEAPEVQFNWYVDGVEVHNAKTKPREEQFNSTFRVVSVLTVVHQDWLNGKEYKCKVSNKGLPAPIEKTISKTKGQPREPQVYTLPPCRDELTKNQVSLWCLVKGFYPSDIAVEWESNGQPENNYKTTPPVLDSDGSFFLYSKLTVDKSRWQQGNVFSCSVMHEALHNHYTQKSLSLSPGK
light: DIELTQPPSVSVAPGQTARISCSGDNLRHYYVYWYQQKPGQAPVLVIYGDSKRPSGIPERFSGSNSGNTATLTISGTQAEDEADYYCQTYTGGASLVFGGGTKLTVLGQRTVAAPSVFIFPPSDEQLKSGTASVVCLLNNFYPREAKVQWKVDNALQSGNSQESVTEQDSKDSTYSLSSTLTLSKADYEKHKVYACEVTHQGLSSPVTKSFNRGEC
notes: structure 1; CD38 (MOR) x CD3; CH2 G2DCH2
B2: CD38-M1-SG2-2 (bispecific antibody, human IgG1, kappa)
chain: B1 chain with C264S, A304D
heavy: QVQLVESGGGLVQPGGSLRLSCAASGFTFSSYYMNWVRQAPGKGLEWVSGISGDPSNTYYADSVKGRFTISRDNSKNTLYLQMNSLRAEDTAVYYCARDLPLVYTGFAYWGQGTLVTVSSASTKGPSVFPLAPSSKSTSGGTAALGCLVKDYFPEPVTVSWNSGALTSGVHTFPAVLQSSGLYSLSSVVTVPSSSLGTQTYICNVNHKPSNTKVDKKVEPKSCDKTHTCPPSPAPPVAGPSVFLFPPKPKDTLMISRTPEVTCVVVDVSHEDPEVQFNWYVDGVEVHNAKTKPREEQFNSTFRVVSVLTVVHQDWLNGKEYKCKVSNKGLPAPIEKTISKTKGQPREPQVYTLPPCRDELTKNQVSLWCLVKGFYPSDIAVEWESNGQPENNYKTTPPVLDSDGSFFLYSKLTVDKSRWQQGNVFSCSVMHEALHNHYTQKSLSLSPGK
light: B1 light
notes: structure 1; CD38 (MOR) x CD3; CH2 SG2CH2

Assays:
Human CD3ε = biological target: T1, Human CD3ε (human, UniProt P07766 23-126); test: flow cytometry, human T cells
T1 construct: CD3 on T cells isolated from human whole blood
Summary of the method: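 Antigen-positive tumor cells or isolated T cells, 2×10⁵/well, 1% FBS-PBS, on ice. Ab 3000 nM top, 3-fold ×11, 2 h 4° C shaking; wash; PE anti-hIgG Fc 8 ug/ml, 1 h 4° C. FACS MFI; EC50, one site–specific binding.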

Monkey CD3 = biological target: T2, Monkey CD3 (monkey); test: flow cytometry, monkey T cells
T2 construct: whole, on cells; also called CD3 of monkey CD3 positive T cells

Human CD38 = Human CD38 (human, UniProt P28907 43-300); test: flow cytometry, MM.1S or RPMI 8226 cells
Description: 1) Cell preparation: T cells isolated from CD3-positive human whole blood were used for a CD3 end affinity detection of multifunctional antibody molecule; positive tumor cells of corresponding antigen were used for detecting affinity of tumor antigen; for example, CD38-positive MM. 1S cells (purchased from the Cell Resource Center of Shanghai Institutes for Biological Sciences, Chinese Academy of Sciences) or RPMI 8226 cells (purchased from the Cell Resource Center of Shanghai Institutes for Biological Sciences, Chinese Academy of Sciences) were used for CD38 antigen detection, and PD-L1 positive H358 cells (purchased from the Cell Resource Center of Shanghai Institutes for Biological Sciences, Chinese Academy of Sciences) were used for PD-L1 antigen detection, and so on. The cells were resuspended with 1% FBS-PBS, adjusted to a density of 4×10⁶/ml, and 50 μl of cells were taken from each well, and then plated at 2×10⁵ per well. Cell plating was operated on ice
2) Addition of the antibody: according to the experimental design, the antibody was diluted gradually, and dilution of antibody was operated on ice. For example, the initial concentration of antibody for dilution was 3000 nM, and the antibody was diluted by 3 times with 11 concentration gradients. The diluted antibody was added to a cell well at 50 μl per well, mixed well, and shaked and incubated at 4° C. 1100 rpm/min for 2 h; after washing, the cells were resuspend in 1% FBS-PBS, and a diluted secondary antibody PE anti-human IgG FC (Biolegend, 409304) was added with a final concentration of 8 ug/ml and a volume of 50 μl/well. At the same time, a well only added with cells and secondary antibody was set as a control, the components were mixed well, and incubated under shaking at 1100 rpm/min at 4° C. for 1 h;
5) Data analysis: the data was analyzed by a flow analysis software FlowJo 7.6 thereby obtaining an average fluorescence intensity of the specific antibody concentration, plotted by a Graphpad Prism 5 with the antibody concentration (nM) as an abscissa and the average fluorescence intensity as an ordinate; the EC50 value was calculated by the method of One site—Specific binding, and the EC50 value indicated the cell affinity of the antibody to the corresponding target antigen.

| Binder | EC50 (Human CD3ε) | EC50 (Monkey CD3) | EC50 (Human CD38) |
| --- | --- | --- | --- |
| B1 | 405 nM | 420 nM | 100 nM |
| B2 | 437 nM | 461 nM | 106 nM |
